Test results: paper PMC6555819, “Comprehensive study of nuclear receptor DNA binding provides a revised framework for understanding receptor specificity”

Legend:
RXRa = RXRa (Homo sapiens, UniProt P19793); assay: no ligand; PBM; 180 nM; PBS pH 7.4, 2% milk, 0.02% Triton X-100, 1 mM DTT, BSA, 0.4 mg/ml salmon testes DNA; conditions: tags: His cleaved; chain copies: 2; label: surface-attached array probe
PPARa:RXRa = PPARa:RXRa (Homo sapiens, UniProt Q07869;P19793 full;full); assay: no ligand; PBM; 270 nM : 90 nM RXRa; PBS pH 7.4, 2% milk, 0.02% Triton X-100, 1 mM DTT, BSA, 0.4 mg/ml salmon testes DNA; conditions: tags: GST kept;His cleaved; copies: 1;1; label: surface-attached array probe
PPARa:RXRa, sequence (Q07869 whole entry, chain 1 of 2): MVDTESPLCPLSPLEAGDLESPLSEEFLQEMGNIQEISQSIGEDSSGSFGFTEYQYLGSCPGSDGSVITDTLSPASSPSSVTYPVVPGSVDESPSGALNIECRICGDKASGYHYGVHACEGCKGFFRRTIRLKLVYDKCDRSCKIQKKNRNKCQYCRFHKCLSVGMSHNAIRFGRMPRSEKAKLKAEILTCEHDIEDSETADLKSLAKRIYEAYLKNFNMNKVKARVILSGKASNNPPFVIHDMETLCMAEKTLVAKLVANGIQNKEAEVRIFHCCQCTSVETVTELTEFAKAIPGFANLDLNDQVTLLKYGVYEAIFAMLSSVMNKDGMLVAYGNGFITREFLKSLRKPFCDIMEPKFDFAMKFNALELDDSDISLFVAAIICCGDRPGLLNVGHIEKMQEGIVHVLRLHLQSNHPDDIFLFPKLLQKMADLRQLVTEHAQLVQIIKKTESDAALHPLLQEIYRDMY
PPARa:RXRa, sequence (P19793 whole entry, chain 2 of 2): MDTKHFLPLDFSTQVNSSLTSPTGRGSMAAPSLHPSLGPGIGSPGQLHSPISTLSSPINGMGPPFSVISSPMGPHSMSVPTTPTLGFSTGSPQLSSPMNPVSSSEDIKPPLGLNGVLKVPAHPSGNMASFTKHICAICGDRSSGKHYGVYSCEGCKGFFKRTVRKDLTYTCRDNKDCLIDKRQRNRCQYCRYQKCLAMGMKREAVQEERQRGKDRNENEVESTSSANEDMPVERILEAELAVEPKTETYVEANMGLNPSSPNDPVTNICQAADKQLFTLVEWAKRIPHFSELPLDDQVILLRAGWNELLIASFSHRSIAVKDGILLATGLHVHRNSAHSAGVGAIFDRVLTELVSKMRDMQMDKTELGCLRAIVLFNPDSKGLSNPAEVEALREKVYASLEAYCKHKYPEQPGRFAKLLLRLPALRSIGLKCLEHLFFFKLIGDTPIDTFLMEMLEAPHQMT
How it was run: (§1)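 The probes on custom Agilent 4×180K protein-binding microarrays were double-stranded, with 34-nt variable regions bearing direct-repeat seeds, single-nucleotide variants, half-site ablations and random human genomic background sequences. Incubation lasted 1 h with ligand-free nuclear receptor dimers in PBS pH 7.4, 2% milk, 0.02% Triton X-100, 1 mM DTT, 0.2 mg/mL BSA and 0.4 mg/ml salmon testes DNA. Antibodies against each partner (one per run) detected bound dimers, and fluorescence scans were regression-normalized. Binding z-scores take the random background probes as reference.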

FXR:RXRa = FXR:RXRa (Homo sapiens, UniProt Q96RI1;P19793 full;full); assay: as above; conditions: tags: His kept;His cleaved; copies: 1;1; label: surface-attached array probe
FXR:RXRa, sequence (Q96RI1 whole entry, chain 1 of 2): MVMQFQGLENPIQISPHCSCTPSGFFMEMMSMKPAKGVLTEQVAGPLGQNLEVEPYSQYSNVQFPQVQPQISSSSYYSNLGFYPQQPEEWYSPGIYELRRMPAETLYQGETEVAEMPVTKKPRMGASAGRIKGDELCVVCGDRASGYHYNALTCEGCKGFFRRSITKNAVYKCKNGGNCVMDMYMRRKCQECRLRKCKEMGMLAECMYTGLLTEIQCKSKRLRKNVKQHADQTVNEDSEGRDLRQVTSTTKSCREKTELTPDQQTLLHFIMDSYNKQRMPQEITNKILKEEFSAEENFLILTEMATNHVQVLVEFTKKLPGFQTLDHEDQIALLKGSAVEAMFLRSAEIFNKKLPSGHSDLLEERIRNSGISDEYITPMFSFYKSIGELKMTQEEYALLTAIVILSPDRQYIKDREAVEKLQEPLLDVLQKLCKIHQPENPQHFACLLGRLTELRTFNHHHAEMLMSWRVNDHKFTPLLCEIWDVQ
FXR:RXRa, sequence (P19793 whole entry, chain 2 of 2): as the sequence (P19793 whole entry, chain 2 of 2) above
How it was run: as §1

RARb:RXRa = RARb:RXRa (Homo sapiens, UniProt P10826;P19793 full;full); assay: as above; conditions: tags: His kept;His cleaved; copies: 1;1; label: surface-attached array probe
RARb:RXRa, sequence (P10826 whole entry, chain 1 of 2): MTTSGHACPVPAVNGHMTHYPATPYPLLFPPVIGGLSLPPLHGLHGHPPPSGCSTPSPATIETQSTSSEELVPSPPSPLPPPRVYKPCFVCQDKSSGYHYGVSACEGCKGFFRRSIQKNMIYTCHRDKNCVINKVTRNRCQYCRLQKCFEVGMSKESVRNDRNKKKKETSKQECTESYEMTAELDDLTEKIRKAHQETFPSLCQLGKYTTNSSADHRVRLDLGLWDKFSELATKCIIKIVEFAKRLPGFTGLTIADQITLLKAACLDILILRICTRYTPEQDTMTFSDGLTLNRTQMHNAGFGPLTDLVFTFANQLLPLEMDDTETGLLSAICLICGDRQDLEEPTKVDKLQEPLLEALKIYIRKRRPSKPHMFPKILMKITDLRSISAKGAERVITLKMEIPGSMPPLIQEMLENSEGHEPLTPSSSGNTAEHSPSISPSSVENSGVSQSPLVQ
RARb:RXRa, sequence (P19793 whole entry, chain 2 of 2): as the sequence (P19793 whole entry, chain 2 of 2) above
How it was run: as §1

RARg:RXRa = RARg:RXRa (Homo sapiens, UniProt P13631;P19793 full;full); assay: as above; conditions: tags: His kept;His cleaved; copies: 1;1; label: surface-attached array probe
RARg:RXRa, sequence (P13631 whole entry, chain 1 of 2): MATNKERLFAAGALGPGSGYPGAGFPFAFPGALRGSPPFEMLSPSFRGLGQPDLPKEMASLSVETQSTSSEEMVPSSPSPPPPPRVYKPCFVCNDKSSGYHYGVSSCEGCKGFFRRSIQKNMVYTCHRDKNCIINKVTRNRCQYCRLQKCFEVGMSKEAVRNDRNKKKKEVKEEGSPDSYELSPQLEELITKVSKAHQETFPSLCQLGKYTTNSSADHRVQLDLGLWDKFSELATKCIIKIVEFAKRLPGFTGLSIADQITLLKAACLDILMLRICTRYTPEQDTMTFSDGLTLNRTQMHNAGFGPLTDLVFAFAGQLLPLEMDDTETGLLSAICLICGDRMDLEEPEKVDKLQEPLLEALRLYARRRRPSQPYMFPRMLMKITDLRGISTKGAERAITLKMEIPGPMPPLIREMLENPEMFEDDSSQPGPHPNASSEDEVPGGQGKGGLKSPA
RARg:RXRa, sequence (P19793 whole entry, chain 2 of 2): as the sequence (P19793 whole entry, chain 2 of 2) above
How it was run: as §1

RXRa, sequence (P19793 whole entry): as the sequence (P19793 whole entry, chain 2 of 2) above

| Binder | binding signal (RXRa) | also measured |
| --- | --- | --- |
| NRC3_wobSeed29_DR1_T22C_o1 (dsDNA) DNA 1: GCGCTTACGGGTCAAAGGTTACAGCATGAATAGAATGCGATTGACAGCGTAGAATGAAGG DNA 2: CCTTCATTCTACGCTGTCAATCGCATTCTATTCATGCTGTAACCTTTGACCCGTAAGCGC | 9.84 PBM z-score against 500 random probes | – |
| NRC3_wobSeed49_DR2_C7G_o1 (dsDNA) DNA 1: GCCAAAGTAGGTCAAGAGGTCAAAGTCCGCTTCCCGGCGATTGACAGCGTAGAATGAAGG DNA 2: CCTTCATTCTACGCTGTCAATCGCCGGGAAGCGGACTTTGACCTCTTGACCTACTTTGGC | 8.95 PBM z-score against 500 random probes | – |
| NRC3_wobSeed97_DR4_T28C_o1 (dsDNA) DNA 1: GCCAAACTAGGTCACGAAAGGTCAAAGCCGAATGACGCGATTGACAGCGTAGAATGAAGG DNA 2: CCTTCATTCTACGCTGTCAATCGCGTCATTCGGCTTTGACCTTTCGTGACCTAGTTTGGC | 8.92 PBM z-score against 500 random probes | – |
| NRC3_wobSeed97_DR4_T22G_o1 (dsDNA) DNA 1: GCCAAACTAGGTCACGAAAGGGCAAAGTCGAATGACGCGATTGACAGCGTAGAATGAAGG DNA 2: CCTTCATTCTACGCTGTCAATCGCGTCATTCGACTTTGCCCTTTCGTGACCTAGTTTGGC | 4.76 PBM z-score against 500 random probes | – |
| NRC3_wobSeed88_DR3_C7A_o1 (dsDNA) DNA 1: GCTAGCATAGGTCATGCGGGCCAGTATAGTGTCGGCGCGATTGACAGCGTAGAATGAAGG DNA 2: CCTTCATTCTACGCTGTCAATCGCGCCGACACTATACTGGCCCGCATGACCTATGCTAGC | 4.81 PBM z-score against 500 random probes | – |
| NRC3_random_hg19_320_o1 (dsDNA) DNA 1: GCCACACTTGCAGAGGAGAAAGGAGTTTGGAAAGCCGCGATTGACAGCGTAGAATGAAGG DNA 2: CCTTCATTCTACGCTGTCAATCGCGGCTTTCCAAACTCCTTTCTCCTCTGCAAGTGTGGC | – | binding signal (PPARa:RXRa): -0.22 PBM z-score against 500 random probes; binding signal (FXR:RXRa): 0.28 PBM z-score against 500 random probes; binding signal (RARb:RXRa): -0.07 PBM z-score against 500 random probes |
| NRC3_random_hg19_369_o1 (dsDNA) DNA 1: GCCAACCCTCTTTCATGTCTGTAAGGAGCTTACCTGGCGATTGACAGCGTAGAATGAAGG DNA 2: CCTTCATTCTACGCTGTCAATCGCCAGGTAAGCTCCTTACAGACATGAAAGAGGGTTGGC | – | binding signal (FXR:RXRa): 0.38 PBM z-score against 500 random probes; binding signal (RARg:RXRa): -0.32 PBM z-score against 500 random probes; binding signal (RARb:RXRa): 0.12 PBM z-score against 500 random probes |
| NRC3_wobSeed34_DR1_A15C_o1 (dsDNA) DNA 1: GCATCGAAAGGTCGCAGGTGAGTATACCCACCCGAAGCGATTGACAGCGTAGAATGAAGG DNA 2: CCTTCATTCTACGCTGTCAATCGCTTCGGGTGGGTATACTCACCTGCGACCTTTCGATGC | 5.33 PBM z-score against 500 random probes | – |
| NRC3_wobSeed34_DR1_G6T_o1 (dsDNA) DNA 1: GCATCTAAAGGTCGAAGGTGAGTATACCCACCCGAAGCGATTGACAGCGTAGAATGAAGG DNA 2: CCTTCATTCTACGCTGTCAATCGCTTCGGGTGGGTATACTCACCTTCGACCTTTAGATGC | 4.9 PBM z-score against 500 random probes | – |
| NRC3_wobSeed23_DR0_G12T_o1 (dsDNA) DNA 1: GCGGAACGAGGTCAAGTTGATAGCAGAGTTTGATGGGCGATTGACAGCGTAGAATGAAGG DNA 2: CCTTCATTCTACGCTGTCAATCGCCCATCAAACTCTGCTATCAACTTGACCTCGTTCCGC | – | binding signal (FXR:RXRa): 8.18 PBM z-score against 500 random probes; binding signal (RARb:RXRa): 5.45 PBM z-score against 500 random probes |
| NRC3_wobSeed93_DR3_T26A_o1 (dsDNA) DNA 1: GCAGTCAAAGTTCATCTAGGTAACGAAAGATATGCTGCGATTGACAGCGTAGAATGAAGG DNA 2: CCTTCATTCTACGCTGTCAATCGCAGCATATCTTTCGTTACCTAGATGAACTTTGACTGC | 5.16 PBM z-score against 500 random probes | – |
| NRC3_wobSeed2_DR0_C4T_o1 (dsDNA) DNA 1: GCCTTAGTTGGTCAAGGTCACACACGCTATAGGTACGCGATTGACAGCGTAGAATGAAGG DNA 2: CCTTCATTCTACGCTGTCAATCGCGTACCTATAGCGTGTGTGACCTTGACCAACTAAGGC | 5.06 PBM z-score against 500 random probes | – |
| NRC3_wobSeed122_DR5_G10T_o1 (dsDNA) DNA 1: GCGCTAGTTTGTCAGTAAAAGGTCACACACCGGTCGGCGATTGACAGCGTAGAATGAAGG DNA 2: CCTTCATTCTACGCTGTCAATCGCCGACCGGTGTGTGACCTTTTACTGACAAACTAGCGC | 5.24 PBM z-score against 500 random probes | – |
| NRC3_wobSeed122_DR5_C4A_o1 (dsDNA) DNA 1: GCGATAGTTGGTCAGTAAAAGGTCACACACCGGTCGGCGATTGACAGCGTAGAATGAAGG DNA 2: CCTTCATTCTACGCTGTCAATCGCCGACCGGTGTGTGACCTTTTACTGACCAACTATCGC | 4.99 PBM z-score against 500 random probes | – |
| NRC3_wobSeed18_DR0_G16T_o1 (dsDNA) DNA 1: GCGATACAGGGTCAATGCCAGAGTACGCGTATTGATGCGATTGACAGCGTAGAATGAAGG DNA 2: CCTTCATTCTACGCTGTCAATCGCATCAATACGCGTACTCTGGCATTGACCCTGTATCGC | 4.72 PBM z-score against 500 random probes | – |
| NRC3_wobSeed3_DR0_G21C_o1 (dsDNA) DNA 1: GCGCTCGGAGGACAAGGTCACAGCTTTGTCCGTAGAGCGATTGACAGCGTAGAATGAAGG DNA 2: CCTTCATTCTACGCTGTCAATCGCTCTACGGACAAAGCTGTGACCTTGTCCTCCGAGCGC | 4.86 PBM z-score against 500 random probes | – |
| NRC3_wobSeed46_DR1_G13T_o1 (dsDNA) DNA 1: GCTTACCAAGGTTAAAGGTCGTTGATGCACGCCTTGGCGATTGACAGCGTAGAATGAAGG DNA 2: CCTTCATTCTACGCTGTCAATCGCCAAGGCGTGCATCAACGACCTTTAACCTTGGTAAGC | 7.99 PBM z-score against 500 random probes | – |
| NRC3_wobSeed5_DR0_A20G_o1 (dsDNA) DNA 1: GCCCTTACGGGTCAAGGTTGTAGCACGGGTGGTACGGCGATTGACAGCGTAGAATGAAGG DNA 2: CCTTCATTCTACGCTGTCAATCGCCGTACCACCCGTGCTACAACCTTGACCCGTAAGGGC | 4.67 PBM z-score against 500 random probes | – |
| NRC3_wobSeed73_DR3_G26C_o1 (dsDNA) DNA 1: GCCAAACTAGGTCACAGAGGTCAAACTCCGTGCGTAGCGATTGACAGCGTAGAATGAAGG DNA 2: CCTTCATTCTACGCTGTCAATCGCTACGCACGGAGTTTGACCTCTGTGACCTAGTTTGGC | 8.89 PBM z-score against 500 random probes | – |
| NRC3_wobSeed73_DR3_C22T_o1 (dsDNA) DNA 1: GCCAAACTAGGTCACAGAGGTTAAAGTCCGTGCGTAGCGATTGACAGCGTAGAATGAAGG DNA 2: CCTTCATTCTACGCTGTCAATCGCTACGCACGGACTTTAACCTCTGTGACCTAGTTTGGC | 5.19 PBM z-score against 500 random probes | – |
| NRC3_wobSeed74_DR3_C15T_o1 (dsDNA) DNA 1: GCTCTAGTTGGTCATGGAGGTCACACACGACGGGTAGCGATTGACAGCGTAGAATGAAGG DNA 2: CCTTCATTCTACGCTGTCAATCGCTACCCGTCGTGTGTGACCTCCATGACCAACTAGAGC | 5.28 PBM z-score against 500 random probes | – |
| NRC3_wobSeed109_DR4_G25T_o1 (dsDNA) DNA 1: GCCGTCCAAGGTCATAGGAGGTCATTGAAGACAGATGCGATTGACAGCGTAGAATGAAGG DNA 2: CCTTCATTCTACGCTGTCAATCGCATCTGTCTTCAATGACCTCCTATGACCTTGGACGGC | 7.89 PBM z-score against 500 random probes | – |
| NRC3_wobSeed22_DR0_G13C_o1 (dsDNA) DNA 1: GCTTACCAAGGTCAAGGTCGTTGATCCCTCTGTAGAGCGATTGACAGCGTAGAATGAAGG DNA 2: CCTTCATTCTACGCTGTCAATCGCTCTACAGAGGGATCAACGACCTTGACCTTGGTAAGC | – | binding signal (FXR:RXRa): 7.79 PBM z-score against 500 random probes; binding signal (RARb:RXRa): 5.5 PBM z-score against 500 random probes |
| NRC3_wobSeed134_DR5_T8G_o1 (dsDNA) DNA 1: GCGCTGCGAGGTCAACTGATGGTCAGCTAAAGCTCGGCGATTGACAGCGTAGAATGAAGG DNA 2: CCTTCATTCTACGCTGTCAATCGCCGAGCTTTAGCTGACCATCAGTTGACCTCGCAGCGC | – | binding signal (FXR:RXRa): 7.7 PBM z-score against 500 random probes; binding signal (RARg:RXRa): 7.43 PBM z-score against 500 random probes; binding signal (RARb:RXRa): 5.49 PBM z-score against 500 random probes |
| NRC3_wobSeed100_DR4_C12G_o1 (dsDNA) DNA 1: GCCCTACTGGGGCACGAAAGGTCATTGATTCAGTGAGCGATTGACAGCGTAGAATGAAGG DNA 2: CCTTCATTCTACGCTGTCAATCGCTCACTGAATCAATGACCTTTCGTGCCCCAGTAGGGC | 5.1 PBM z-score against 500 random probes | – |
| NRC3_wobSeed44_DR1_T13C_o1 (dsDNA) DNA 1: GCTGAATGAGGTCAAAGATCAGGGAACGTGGCGTCGGCGATTGACAGCGTAGAATGAAGG DNA 2: CCTTCATTCTACGCTGTCAATCGCCGACGCCACGTTCCCTGATCTTTGACCTCATTCAGC | 7.98 PBM z-score against 500 random probes | – |
| NRC3_wobSeed133_DR5_T23C_o1 (dsDNA) DNA 1: GCCGTCCAAGGTCAATGCTAGGCCAGTGAAAGCATTGCGATTGACAGCGTAGAATGAAGG DNA 2: CCTTCATTCTACGCTGTCAATCGCAATGCTTTCACTGGCCTAGCATTGACCTTGGACGGC | 4.95 PBM z-score against 500 random probes | – |
| NRC3_wobSeed26_DR1_T8C_o1 (dsDNA) DNA 1: GCTCTAGCTGGTCAAAGGTCACACACTCGAAATGCGGCGATTGACAGCGTAGAATGAAGG DNA 2: CCTTCATTCTACGCTGTCAATCGCCGCATTTCGAGTGTGTGACCTTTGACCAGCTAGAGC | 8.94 PBM z-score against 500 random probes | – |
